Measurements as given in publication PMC10458530, “Synthesis and Evaluation of ePSMA-DM1: A New Theranostic Small-Molecule Drug Conjugate (T-SMDC) for Prostate Cancer” (Pharmaceuticals, 2023).
Where two headings read alike, the source gives them in different places. Non-standard residues stand in square brackets, D forms with d. Residues, ends and D or L forms follow the SMILES beside them. *: point of attachment. Propanoyl(3-SS-DM1) = COc1cc2cc(c1Cl)N(C)C(=O)C[C@H](OC(=O)[C@H](C)N(C)C(=O)CCSSCCC(=O)*)[C@]1(C)O[C@H]1[C@H](C)[C@@H]1C[C@@](O)(NC(=O)O1)[C@H](OC)/C=C/C=C(\C)C2; DOTA = O=C(O)CN1CCN(CC(=O)O)CCN(CC(=O)*)CCN(CC(=O)O)CC1; EuK = O=C(O)CC[C@H](NC(=O)N[C@@H](CCCCN*)C(=O)O)C(=O)O; Sta = CC(C)C[C@H](N)[C@@H](O)CC(=O)O; Ahx = NCCCCCC(=O)O

Tests used:
[1] = LogD7.4 by shake-flask method; type: physicochemical; details: PBS pH 7.4/n-octanol
Procedure: The distribution coefficients (LogD7.4 values) were determined by the shake-flask method, in which 2 μL (~0.5 MBq) of [^111In]In-ePSMA-DM1 was added to an Eppendorf tube containing 1 mL of PBS (0.01 M, pH 7.4)/n-octanol (v/v, 1:1). After vigorous vortexing, the solution was centrifuged at 2500 g for 3 min for phase separation. The n-octanol phase was separated from the PBS phase into a new Eppendorf tube and centrifuged for 15 min. Samples (3 × 10 μL) of the two phases were taken out and measured in the γ-counter. LogD7.4 values were calculated by using the following equation: LogD7.4 = log [(counts in octanol phase)/(counts in aqueous phase)] and the experiment was performed in triplicate.

[2] = Ex vivo biodistribution; type: in vivo, mouse; details: male, mouse, intravenous, total radioactivity; for tissue uptake at 1 h: 1 h p.i.; for tissue uptake at 4 h: 4 h p.i.; for tissue uptake at 24 h: 24 h p.i.
Procedure: Animal experiments were performed using male BALB/c nude mice (8–10 weeks old; Janvier Labs, Le Genest-Saint-Isle, France). Animals were housed in individually ventilated cages (Blue line IVC, 2 mice per cage) under sterile standard conditions with cage enrichments present and free access to animal chow (Sniff GmbH, Soest, Germany) and water. They were acclimated for 1 week prior to experiments. Mice were subcutaneously inoculated with 4.0 × 10^6 LS174T cells in the right flank diluted in 100 μL of cell suspension […]. The average tumor volume size per group (n = 4) was of 206.2 ± 7.9 mm^3 (average weight of 105.8 ± 7.3 mg) after non-blinded grouping to enable homogenous tumor size distribution. [^111In]In-ePSMA-DM1 was injected intravenously via the tail vein. All experiments were approved by the institutional Animal Welfare Committee and were conducted in accordance to the guidelines of the Revised Dutch Act on Animal Experimentation (WOD).
Mice were intravenously injected with ~1 nmol of [^111In]In-ePSMA-DM1 (5 MBq). Mice (n = 4/timepoint) were euthanized by cervical dislocation at 1, 4 and 24 h p.i. A block group (co-injection of 50 nmol of PSMA-617) was included, and mice were euthanized at 4 h p.i. Organs (blood, heart, lungs, liver, spleen, stomach, intestines, pancreas, kidneys, muscle, skin, bone and prostate) and the tumors were collected in pre-weighed tubes, weighed after organ collection, and measured in the γ-counter, for which the calibration factor was determined by measuring different known activities of In-111. Activity was corrected for decay, and uptake was expressed as percentage of the injected dose per gram of the tissue (% ID/g). The biological half-lives in tissues of [^111In]In-ePSMA-DM1 were determined using a one-phase decay algorithm in GraphPad Prism 9.0 (GraphPad Software, Boston, MA, USA).

[3] = BALB/c nude (BALB/c nu/nu), blood, 1 nmol, read-out: uptake in blood
[4] = BALB/c nude (BALB/c nu/nu), heart, 1 nmol, read-out: uptake in heart
[5] = BALB/c nude (BALB/c nu/nu), kidney, 1 nmol, read-out: uptake in kidney
[6] = BALB/c nude (BALB/c nu/nu), liver, 1 nmol, read-out: uptake in liver
[7] = BALB/c nude (BALB/c nu/nu), lung, 1 nmol, read-out: uptake in lung
[8] = BALB/c nude (BALB/c nu/nu), muscle, 1 nmol, read-out: uptake in muscle
[9] = BALB/c nude (BALB/c nu/nu), pancreas, 1 nmol, read-out: uptake in pancreas
[10] = BALB/c nude (BALB/c nu/nu), skin, 1 nmol, read-out: uptake in skin
[11] = BALB/c nude (BALB/c nu/nu), spleen, 1 nmol, read-out: uptake in spleen
[12] = BALB/c nude (BALB/c nu/nu), stomach, 1 nmol, read-out: uptake in stomach
[13] = BALB/c nude (BALB/c nu/nu), tumor, 1 nmol, read-out: uptake in tumor
[14] = BALB/c nude (nu/nu), bone, 1 nmol, read-out: uptake in bone
[15] = BALB/c nude (nu/nu), intestines, 1 nmol, read-out: uptake in intestines
[16] = BALB/c nude (nu/nu), prostate, 1 nmol, read-out: uptake in prostate

Work on `COc1cc2cc(c1Cl)N(C)C(=O)C[C@H](OC(=O)[C@H](C)N(C)C(=O)CCSSCCC(=O)NCCCC[C@H](NC(=O)CN1CCN(CC(=O)O)CCN(CC(=O)O)CCN(CC(=O)O)CC1)C(=O)N[C@@H](CC(=O)O)C(=O)N[C@@H](Cc1ccccc1)C(=O)N[C@@H](CC(C)C)[C@@H](O)CC(=O)NCCCCCC(=O)NCCCC[C@H](NC(=O)N[C@@H](CCC(=O)O)C(=O)O)C(=O)O)[C@]1(C)O[C@H]1[C@H](C)[C@@H]1C[C@@](O)(NC(=O)O1)[C@H](OC)/C=C/C=C(\C)C2` [[^111In]In-ePSMA-DM1, metal not drawn] ({DOTA}-K(Propanoyl(3-SS-DM1))DF[Sta][Ahx]-EuK) yielded a logD [1] of -2.47 ± 0.11, a tissue uptake at 1 h [2, 3] of 1.43 ± 0.04 %ID/g and a tissue uptake at 4 h [2, 3] of 0.37 ± 0.01 %ID/g. It also gave a tissue uptake at 24 h [2, 3] of 0.04 %ID/g, a tissue uptake at 4 h ([2]; BALB/c nude (BALB/c nu/nu), blood, block (co-injection of PSMA-617), read-out: uptake in blood) of 0.3 ± 0.04 %ID/g and a tissue uptake at 1 h [2, 4] of 0.65 ± 0.1 %ID/g. The tissue uptake at 4 h [2, 4] was 0.23 ± 0.04 %ID/g, the tissue uptake at 24 h [2, 4] was 0.1 ± 0.02 %ID/g and the tissue uptake at 4 h ([2]; BALB/c nude (BALB/c nu/nu), heart, block (co-injection of PSMA-617), read-out: uptake in heart) was 0.18 %ID/g. For the same molecule, the tissue uptake at 1 h [2, 5] was 34 ± 2.54 %ID/g, the tissue uptake at 4 h [2, 5] was 31.6 ± 1.78 %ID/g and the tissue uptake at 24 h [2, 5] was 13.2 ± 0.95 %ID/g. For the same molecule, the tissue uptake at 4 h ([2]; BALB/c nude (BALB/c nu/nu), kidney, block (co-injection of PSMA-617), read-out: uptake in kidney) was 24 ± 1.46 %ID/g, the tissue uptake at 1 h [2, 6] was 0.68 %ID/g and the tissue uptake at 4 h [2, 6] was 0.63 ± 0.02 %ID/g. It also gave a tissue uptake at 24 h [2, 6] of 0.39 ± 0.04 %ID/g, a tissue uptake at 4 h ([2]; BALB/c nude (BALB/c nu/nu), liver, block (co-injection of PSMA-617), read-out: uptake in liver) of 0.56 ± 0.05 %ID/g and a tissue uptake at 1 h [2, 7] of 1.34 ± 0.18 %ID/g. For the same molecule, the tissue uptake at 4 h [2, 7] was 0.4 ± 0.03 %ID/g, the tissue uptake at 24 h [2, 7] was 0.25 ± 0.12 %ID/g and the tissue uptake at 4 h ([2]; BALB/c nude (BALB/c nu/nu), lung, block (co-injection of PSMA-617), read-out: uptake in lung) was 0.51 ± 0.26 %ID/g. It also gave a tissue uptake at 1 h [2, 8] of 0.3 ± 0.06 %ID/g, a tissue uptake at 4 h [2, 8] of 0.21 ± 0.16 %ID/g and a tissue uptake at 24 h [2, 8] of 0.07 ± 0.01 %ID/g. It also gave a tissue uptake at 4 h ([2]; BALB/c nude (BALB/c nu/nu), muscle, block (co-injection of PSMA-617), read-out: uptake in muscle) of 0.1 ± 0.01 %ID/g, a tissue uptake at 4 h [2, 9] of 0.17 ± 0.01 %ID/g and a tissue uptake at 24 h [2, 9] of 0.09 ± 0.01 %ID/g. For the same molecule, the tissue uptake at 4 h ([2]; BALB/c nude (BALB/c nu/nu), pancreas, block (co-injection of PSMA-617), read-out: uptake in pancreas) was 0.14 ± 0.02 %ID/g, the tissue uptake at 1 h [2, 10] was 1.37 ± 0.29 %ID/g and the tissue uptake at 4 h [2, 10] was 0.75 ± 0.12 %ID/g. The tissue uptake at 1 h [2, 11] was 1.32 ± 0.28 %ID/g, the tissue uptake at 4 h [2, 11] was 0.47 ± 0.08 %ID/g and the tissue uptake at 24 h [2, 11] was 0.27 ± 0.01 %ID/g. For the same molecule, the tissue uptake at 4 h ([2]; BALB/c nude (BALB/c nu/nu), spleen, block (co-injection of PSMA-617), read-out: uptake in spleen) was 0.32 ± 0.02 %ID/g, the tissue uptake at 1 h [2, 12] was 0.8 ± 0.61 %ID/g and the tissue uptake at 4 h [2, 12] was 0.47 ± 0.32 %ID/g. For the same molecule, the tissue uptake at 4 h [2, 13] was 1.19 ± 0.22 %ID/g, the tissue uptake at 24 h [2, 13] was 0.5 ± 0.14 %ID/g and the tissue uptake at 4 h ([2]; BALB/c nude (BALB/c nu/nu), tumor, block (co-injection of PSMA-617), read-out: uptake in tumor) was 0.8 ± 0.31 %ID/g. The tissue uptake at 1 h [2, 14] was 0.73 ± 0.27 %ID/g, the tissue uptake at 4 h [2, 14] was 0.41 ± 0.06 %ID/g and the tissue uptake at 24 h [2, 14] was 0.3 ± 0.03 %ID/g. The tissue uptake at 4 h ([2]; BALB/c nude (nu/nu), bone, block (co-injection of PSMA-617), read-out: uptake in bone) was 0.33 ± 0.04 %ID/g, the tissue uptake at 1 h [2, 15] was 0.56 ± 0.19 %ID/g and the tissue uptake at 4 h [2, 15] was 0.45 ± 0.2 %ID/g. For the same molecule, the tissue uptake at 24 h [2, 15] was 0.12 ± 0.03 %ID/g, the tissue uptake at 4 h ([2]; BALB/c nude (nu/nu), intestines, block (co-injection of PSMA-617), read-out: uptake in intestines) was 0.56 ± 0.35 %ID/g and the tissue uptake at 1 h ([2]; BALB/c nude (nu/nu), pancreas, 1 nmol, read-out: uptake in pancreas) was 0.43 ± 0.11 %ID/g. It also gave a tissue uptake at 1 h [2, 16] of 1.92 ± 0.87 %ID/g, a tissue uptake at 4 h [2, 16] of 0.46 ± 0.19 %ID/g and a tissue uptake at 24 h [2, 16] of 0.16 ± 0.03 %ID/g. For the same molecule, the tissue uptake at 4 h ([2]; BALB/c nude (nu/nu), prostate, block (co-injection of PSMA-617), read-out: uptake in prostate) was 0.4 ± 0.18 %ID/g, the tissue uptake at 24 h ([2]; BALB/c nude (nu/nu), skin, 1 nmol, read-out: uptake in skin) was 0.44 ± 0.05 %ID/g and the tissue uptake at 4 h ([2]; BALB/c nude (nu/nu), skin, block (co-injection of PSMA-617), read-out: uptake in skin) was 0.57 ± 0.19 %ID/g. For the same molecule, the tissue uptake at 24 h ([2]; BALB/c nude (nu/nu), stomach, 1 nmol, read-out: uptake in stomach) was 0.05 ± 0.02 %ID/g, the tissue uptake at 4 h ([2]; BALB/c nude (nu/nu), stomach, block (co-injection of PSMA-617), read-out: uptake in stomach) was 0.3 ± 0.24 %ID/g and the tissue uptake at 1 h ([2]; BALB/c nude (nu/nu), tumor, 1 nmol, read-out: uptake in tumor) was 2.39 ± 0.29 %ID/g.
